Values belong to the binder of their own block, whether it stands above or below them.
Target: GST-Aβ42 (monomeric amyloid beta 1-42 as a GST-fusion protein) (UniProt P05067 672-713)
Assay: BLI

Chain of GST-Aβ42 (monomeric amyloid beta 1-42 as a GST-fusion protein) (P05067 672-713): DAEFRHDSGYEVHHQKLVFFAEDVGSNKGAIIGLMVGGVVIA

Kd: 5.1 µM
B1: human TREM2 Ig domain (aa 19-134), wild type, without BirA tag, in solution (domain or fragment, UniProt Q9NZC2 19-134, looked up)
chain: HNTTVFQGVAGQSLQVSCPYDSMKHWGRRKAWCRQLGEKGPCQRVVSTHNLWLLSFLRRWNGSTAITDDTLGGTLTITLRNLQPHDAGLYQCQSLHGSEADTLRKVLVEVLADPLD

Kd: 3.8 µM
B2: human sTREM2 (aa 19-157), wild type, in solution (domain or fragment, UniProt Q9NZC2 19-157, looked up)
chain: HNTTVFQGVAGQSLQVSCPYDSMKHWGRRKAWCRQLGEKGPCQRVVSTHNLWLLSFLRRWNGSTAITDDTLGGTLTITLRNLQPHDAGLYQCQSLHGSEADTLRKVLVEVLADPLDHRDAGDLWFPGESESFEDAHVEH
